Measurements as given in patent publication US8735553 (BEIGENE SWITZERLAND, dated 2014).
Like-named read-outs stand apart in the source and are kept apart here.

Legend:
[1] = molecular target: T1, human PD-1 expressed on cells (human, UniProt Q15116 25-288); assay: cell-based or functional assay
[2] = molecular target: P3Z chimeric PD-1 receptor (human); assay: cell-based or functional assay
[3] = molecular target: T1, human PD-1 expressed on cells; assay: FACS on PD-1-expressing cells, goat anti-human IgG detection
[4] = molecular target: T2, wild-type human PD-1 recombinant protein (PD-1/His or PD-1/Fc, not said which) (human, UniProt Q15116 21-168); assay: ELISA on coated recombinant PD-1
T2 construct: also called WT PD-1
T2 sequence (Q15116 21-168 limits assumed): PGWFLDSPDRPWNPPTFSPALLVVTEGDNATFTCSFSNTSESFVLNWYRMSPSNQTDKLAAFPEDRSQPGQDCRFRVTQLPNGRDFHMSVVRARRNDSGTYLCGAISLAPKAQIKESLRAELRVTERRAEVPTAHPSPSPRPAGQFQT

[5] = molecular target: T1, human PD-1 expressed on cells; assay: FACS on PD-1-expressing cells
[6] = molecular target: T1, human PD-1 expressed on cells; assay: cell-based or functional assay; remark: listed apart in the source
[7] = molecular target: P3Z chimeric PD-1 receptor (human); assay: cell-based or functional assay; remark: listed apart in the source
[8] = molecular target: T1, human PD-1 expressed on cells; assay: cell-based or functional assay; remark: listed apart in the source
[9] = molecular target: P3Z chimeric PD-1 receptor (human); assay: cell-based or functional assay; remark: listed apart in the source
[10] = molecular target: T1, human PD-1 expressed on cells; assay: FACS on PD-1-expressing cells; remark: listed apart in the source
[11] = molecular target: T3, human FcγRI (human, UniProt P12314 16-374); assay: flow cytometry, FcγR+ HEK293 cells
T3 construct: whole, on cells; also called FcγR1
T3 sequence (P12314 16-374): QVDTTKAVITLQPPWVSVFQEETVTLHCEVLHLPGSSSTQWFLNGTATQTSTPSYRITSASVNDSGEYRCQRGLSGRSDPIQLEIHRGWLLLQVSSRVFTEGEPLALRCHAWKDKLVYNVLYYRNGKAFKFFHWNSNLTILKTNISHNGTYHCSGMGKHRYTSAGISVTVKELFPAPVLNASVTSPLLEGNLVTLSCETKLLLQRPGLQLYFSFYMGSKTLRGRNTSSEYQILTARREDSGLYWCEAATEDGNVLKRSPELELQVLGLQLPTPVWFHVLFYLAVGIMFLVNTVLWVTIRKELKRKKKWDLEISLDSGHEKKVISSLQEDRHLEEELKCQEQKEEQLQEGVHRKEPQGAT
Procedure: (§1) Binding of various IgG4 mutants to FcγRs was determined by flow cytometry. In brief, a series of HEK293 transfectants expressing human FcγRs were established. These transfectants expressed FcγRI, FcγRIIA, FcγRIIB or FcγRIIIA Multi-subunit FcγRs (i.e., FcγR1 and FcγRIIIA) were co-expressed with FcRγ. Polymorphic variants (i.e., FcγRIIA H131 and R131, FcγRIIIA F158 and V158) were also included.

[12] = molecular target: T4, human FcγRIIIA (F158) (human, UniProt P08637 17-254); assay: flow cytometry, FcγR+ HEK293 cells
T4 construct: whole, on cells
T4 sequence (P08637 17-254): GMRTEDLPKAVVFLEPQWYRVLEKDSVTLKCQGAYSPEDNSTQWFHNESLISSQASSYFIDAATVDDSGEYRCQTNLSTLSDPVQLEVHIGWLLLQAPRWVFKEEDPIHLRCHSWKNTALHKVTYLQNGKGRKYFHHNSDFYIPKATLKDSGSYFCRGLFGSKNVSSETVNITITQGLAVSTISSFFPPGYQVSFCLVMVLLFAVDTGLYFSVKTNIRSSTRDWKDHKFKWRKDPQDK
Procedure: as §1

[13] = molecular target: T5, human FcγRIIIA (V158) (human, UniProt P08637 17-254); assay: flow cytometry, FcγR+ HEK293 cells
T5 construct: whole, on cells; also called CD16 (V158 allele)
T5 sequence (P08637 17-254 F176V limits assumed): as the sequence (P08637 17-254) above, with F160V counted along it
Procedure: as §1

Chain of P3Z chimeric PD-1 receptor (human) (chain, as listed by the source mutant limits assumed): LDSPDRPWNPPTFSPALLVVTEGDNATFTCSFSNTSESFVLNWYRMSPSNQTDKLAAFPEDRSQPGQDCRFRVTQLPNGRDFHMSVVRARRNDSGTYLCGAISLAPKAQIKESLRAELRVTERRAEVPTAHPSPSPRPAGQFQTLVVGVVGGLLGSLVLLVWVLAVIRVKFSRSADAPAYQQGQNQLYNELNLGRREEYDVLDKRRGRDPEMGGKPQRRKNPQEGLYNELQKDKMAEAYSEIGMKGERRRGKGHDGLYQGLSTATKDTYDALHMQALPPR
T1 sequence (Q15116 25-288): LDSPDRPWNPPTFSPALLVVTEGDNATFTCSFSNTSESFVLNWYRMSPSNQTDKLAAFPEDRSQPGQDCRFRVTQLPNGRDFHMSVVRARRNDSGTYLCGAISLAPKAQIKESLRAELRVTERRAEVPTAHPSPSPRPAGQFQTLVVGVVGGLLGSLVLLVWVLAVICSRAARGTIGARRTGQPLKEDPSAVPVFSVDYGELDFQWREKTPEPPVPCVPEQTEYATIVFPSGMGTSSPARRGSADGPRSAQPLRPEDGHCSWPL

Binder | EC50 [5] | IL-2 release in HuT78/PD-1, EC50 [8] | IL-2 release in HuT78/PD-1, Top line [8] | IL-2 release in HuT78/P3Z, IC50 [9] | IL-2 release in HuT78/P3Z, Max inhibition [9] | other results
ch317 (antibody, human IgG2, V domains shown, not shown: a dimerising Fc or GST, domain: Ig kappa C-region; Murine VH and Vκ of mu317 on human IgG2 / kappa) VH: QVQLKESGPGLVAPSKNLSITCTVSGFSLTSYGVHWIRQPPGKGLEWLGVIWAGGSTNYNSALMSRLSISKDNSRSQVFLRMNSLQTDDTAMYYCARAYGNYWYIDVWGAGTTVTVSS VL: DIVMTQTPKFLLVSAGDRVTITCKASQSVSNDVAWYQQKPGQSPKLLINYAFHRFTGVPDRFTGSGYGTDFIFTISTVQAEDLAVYFCHQAYSSPYTFGGGTKLEMKR | – | – | – | – | – | Assay-1 IL-2 release, EC50 (HuT78/PD-1 + HEK293/OS8/PD-L1) [1]: 0.08 µg/mL; Assay-1 IL-2 release, Top line (HuT78/PD-1 + HEK293/OS8/PD-L1) [1]: 294 pg/mL; Assay-2 IL-2 release, IC50 (HuT78/P3Z + HEK293/PD-L1) [2]: 0.1 µg/mL; Assay-2 IL-2 release, Max inhibition (HuT78/P3Z + HEK293/PD-L1) [2]: 99%; EC50 [3]: 0.36 µg/mL
hu317-1 (antibody, IgG2, V domains shown, not shown: a dimerising Fc or GST, domain: Ig kappa C-region; Initial humanized version, IgG2 / kappa) VH: QVQLQESGPGLVKPSETLSLTCTVSGFSLTSYGVHWIRQPPGKGLEWLGVIWAGGSTNYNPSLKSRLTISKDNSKSQVSLKMSSVTAADTAVYYCARAYGNYWYIDVWGQGTTVTVSS VL: DIVMTQSPDSLAVSLGERATINCKASQSVSNDVAWYQQKPGQPPKLLINYAFHRFTGVPDRFSGSGYGTDFTLTISSLQAEDVAVYYCHQAYSSPYTFGGGTKLEIKR | – | – | – | – | – | Assay-1 IL-2 release, EC50 (HuT78/PD-1 + HEK293/OS8/PD-L1) [1]: 0.09 µg/mL; Assay-1 IL-2 release, Top line (HuT78/PD-1 + HEK293/OS8/PD-L1) [1]: 386 pg/mL; Assay-2 IL-2 release, IC50 (HuT78/P3Z + HEK293/PD-L1) [2]: 0.11 µg/mL; Assay-2 IL-2 release, Max inhibition (HuT78/P3Z + HEK293/PD-L1) [2]: 99.8%; EC50 [3]: 0.46 µg/mL
hu317-4B5 (antibody, V domains shown, Humanized mAb) VH: QVQLQESGPGLVKPSETLSLTCTVSGFSLTSYGVHWIRQPPGKGLEWIGVIYAGGSTNYNPSLKSRVTISKDTSKNQVSLKLSSVTAADTAVYYCARAYGNYWYIDVWGQGTTVTVSS VL: DIVMTQSPDSLAVSLGERATINCKSSESVSNDVAWYQQKPGQPPKLLINYAFHRFTGVPDRFSGSGYGTDFTLTISSLQAEDVAVYYCHQAYSSPYTFGQGTKLEIK | – | – | – | – | – | EC50 [4]: 0.057 µg/mL
hu317-4B2 (antibody, V domains shown, Humanized mAb) VH: QVQLQESGPGLVKPSETLSLTCTVSGFSLTSYGVHWIRQPPGKGLEWIGVIYAGGSTNYNPSLKSRVTISKDTSKNQFSLKLSSVTAADTAVYYCARAYGNYWYIDVWGQGTTVTVSS VL: DIVMTQSPDSLAVSLGERATINCKSSESVSNDVAWYQQKPGQPPKLLINYAFHRFTGVPDRFSGSGYGTDFTLTISSLQAEDVAVYYCHQAYSSPYTFGQGTKLEIK | – | – | – | – | – | EC50 [4]: 0.066 µg/mL
ch326 (antibody, human IgG2, V domains shown, not shown: a dimerising Fc or GST, domain: Ig kappa C-region; Murine VH and Vκ of mu326 on human IgG2 / kappa) VH: QIQLVQSGPELKKPGETVKISCKASGYTFTNYGMNWVKQAPGKGLKWMGWINNNNGEPTYAEEFKGRFAFSLETSASTAYLQINNLKNEDTATYFCARDVMDYWGQGTSVTVSS VL: DIVLTQSPASLAVSLGQRATISCRASESVDNYGYSFMHWYQQKPGQPPQLLIYRASNLESGIPARFSGSGSRTGFTLTINPVEADDVATYYCQQSKEYPTFGGGTKLEVKR | 0.118 µg/mL | 0.135 µg/mL | 993 pg/mL | 0.074 µg/mL | 93% | Assay-1 IL-2 release, EC50 (HuT78/PD-1 + HEK293/OS8/PD-L1) [6]: 0.074 µg/mL; Assay-1 IL-2 release, Top line (HuT78/PD-1 + HEK293/OS8/PD-L1) [6]: 1060 pg/mL; Assay-2 IL-2 release, IC50 (HuT78/P3Z + HEK293/PD-L1) [7]: 0.12 µg/mL; Assay-2 IL-2 release, Max inhibition (HuT78/P3Z + HEK293/PD-L1) [7]: 81%; EC50 [10]: 0.072 µg/mL; Top MFI [10]: 163 MFI
hu326-2 F95Y (antibody, V domains shown, mAb; constant regions not restated (hu326-1 is IgG2 / kappa); Forward mutation to human) VH: QVQLVQSGSELKKPGASVKVSCKASGYTFTNYGMNWVRQAPGQGLEWMGWINNNNGEPTYAQGFRGRFVFSLDTSASTAYLQISSLKTEDTAVYYCARDVMDYWGQGTTVTVSS VL: DIVLTQSPASLAVSPGQRATITCRASESVDNYGYSFMHWYQQKPGQPPKLLIYRASNLESGVPARFSGSGSRTDFTLTINPVEANDTANYYCQQSKEYPTFGGGTKVEIK | 0.097 µg/mL | 0.135 µg/mL | 1030 pg/mL | 0.166 µg/mL | 95.6% | –
hu326-1 (antibody, IgG2, V domains shown, not shown: a dimerising Fc or GST, domain: Ig kappa C-region; Initial humanized version, IgG2 / kappa) VH: QVQLVQSGSELKKPGASVKVSCKASGYTFTNYGMNWVRQAPGQGLEWMGWINNNNGEPTYAQGFRGRFVFSLDTSASTAYLQISSLKTEDTAVYFCARDVMDYWGQGTTVTVSS VL: DIVLTQSPASLAVSPGQRATITCRASESVDNYGYSFMHWYQQKPGQPPKLLIYRASNLESGVPARFSGSGSRTDFTLTINPVEANDTANYYCQQSKEYPTFGGGTKVEIKR | 0.317 µg/mL | 0.213 µg/mL | 987 pg/mL | 0.087 µg/mL | 92.4% | Assay-1 IL-2 release, EC50 (HuT78/PD-1 + HEK293/OS8/PD-L1) [6]: 0.112 µg/mL; Assay-1 IL-2 release, Top line (HuT78/PD-1 + HEK293/OS8/PD-L1) [6]: 1140 pg/mL; Assay-2 IL-2 release, IC50 (HuT78/P3Z + HEK293/PD-L1) [7]: 0.1 µg/mL; Assay-2 IL-2 release, Max inhibition (HuT78/P3Z + HEK293/PD-L1) [7]: 84.4%; EC50 [10]: 0.117 µg/mL; Top MFI [10]: 129 MFI
hu326-2 S84N (antibody, V domains shown, mAb; constant regions not restated (hu326-1 is IgG2 / kappa); Back mutation to murine) VH: QVQLVQSGSELKKPGASVKVSCKASGYTFTNYGMNWVRQAPGQGLEWMGWINNNNGEPTYAQGFRGRFVFSLDTSASTAYLQINSLKTEDTAVYFCARDVMDYWGQGTTVTVSS VL: DIVLTQSPASLAVSPGQRATITCRASESVDNYGYSFMHWYQQKPGQPPKLLIYRASNLESGVPARFSGSGSRTDFTLTINPVEANDTANYYCQQSKEYPTFGGGTKVEIK | 0.131 µg/mL | 0.126 µg/mL | 1020 pg/mL | 0.06 µg/mL | 96.5% | –
hu326-2 S85N (antibody, V domains shown, mAb; constant regions not restated (hu326-1 is IgG2 / kappa); Back mutation to murine) VH: QVQLVQSGSELKKPGASVKVSCKASGYTFTNYGMNWVRQAPGQGLEWMGWINNNNGEPTYAQGFRGRFVFSLDTSASTAYLQISNLKTEDTAVYFCARDVMDYWGQGTTVTVSS VL: DIVLTQSPASLAVSPGQRATITCRASESVDNYGYSFMHWYQQKPGQPPKLLIYRASNLESGVPARFSGSGSRTDFTLTINPVEANDTANYYCQQSKEYPTFGGGTKVEIK | 0.11 µg/mL | 0.104 µg/mL | 932 pg/mL | 0.093 µg/mL | 95.6% | –
hu326-2 G63D (antibody, V domains shown, mAb; constant regions not restated (hu326-1 is IgG2 / kappa); Back mutation to murine) VH: QVQLVQSGSELKKPGASVKVSCKASGYTFTNYGMNWVRQAPGQGLEWMGWINNNNGEPTYAQDFRGRFVFSLDTSASTAYLQISSLKTEDTAVYFCARDVMDYWGQGTTVTVSS VL: DIVLTQSPASLAVSPGQRATITCRASESVDNYGYSFMHWYQQKPGQPPKLLIYRASNLESGVPARFSGSGSRTDFTLTINPVEANDTANYYCQQSKEYPTFGGGTKVEIK | 0.139 µg/mL | 0.12 µg/mL | 1070 pg/mL | 0.064 µg/mL | 96.4% | –
hu326-2 S9P (antibody, V domains shown, mAb; constant regions not restated (hu326-1 is IgG2 / kappa); Back mutation to murine) VH: QVQLVQSGPELKKPGASVKVSCKASGYTFTNYGMNWVRQAPGQGLEWMGWINNNNGEPTYAQGFRGRFVFSLDTSASTAYLQISSLKTEDTAVYFCARDVMDYWGQGTTVTVSS VL: DIVLTQSPASLAVSPGQRATITCRASESVDNYGYSFMHWYQQKPGQPPKLLIYRASNLESGVPARFSGSGSRTDFTLTINPVEANDTANYYCQQSKEYPTFGGGTKVEIK | 0.145 µg/mL | 0.136 µg/mL | 1020 pg/mL | 0.075 µg/mL | 96% | –
hu326-3G1 (antibody, V domains shown, Humanized mAb) VH: QVQLVQSGPELKKPGASVKVSCKASGYTFTNYGMNWVRQAPGQGLKWMGWINNNNGEPTYAQDFRGRFVFSLDTSASTAYLQISSLKTEDTAVYYCARDVMDYWGQGTLVTVSS VL: DIVLTQSPASLAVSPGQRATITCRASESVDNYGYSFMHWYQQKPGQPPKLLIYRASNLESGVPARFSGSGSRTDFTLTINPVEANDTANYYCQQSKEYPTFGGGTKVEIK | – | – | – | – | – | EC50 [4]: 0.088 µg/mL
hu317-4B6/IgG4mt10 (antibody, Light chain constant region not restated for this format; copies: 2 + 2) heavy: QVQLQESGPGLVKPSETLSLTCTVSGFSLTSYGVHWIRQPPGKGLEWIGVIYADGSTNYNPSLKSRVTISKDTSKNQVSLKLSSVTAADTAVYYCARAYGNYWYIDVWGQGTTVTVSSASTKGPSVFPLAPCSRSTSESTAALGCLVKDYFPEPVTVSWNSGALTSGVHTFPAVLQSSGLYSLSSVVTVPSSSLGTKTYTCNVDHKPSNTKVDKRVESKYGPPCPPCPAPPVAGGPSVFLFPPKPKDTLMISRTPEVTCVVVAVSQEDPEVQFNWYVDGVEVHNAKTKPREEQFNSTYRVVSVLTVVHQDWLNGKEYKCKVSNKGLPSSIEKTISKAKGQPREPQVYTLPPSQEEMTKNQVSLTCLVKGFYPSDIAVEWESNGQPENNYKTTPPVLDSDGSFFLYSKLTVDKSRWQEGNVFSCSVMHEALHNHYTQKSLSLSLGK VL: DIVMTQSPDSLAVSLGERATINCKSSESVSNDVAWYQQKPGQPPKLLINYAFHRFTGVPDRFSGSGYGTDFTLTISSLQAEDVAVYYCHQAYSSPYTFGQGTKLEIK | – | – | – | – | – | binding result [11]: no binding; binding result [12]: no binding; binding result [13]: no binding
